Experiment [1] addresses T1, hybrid CD4 protein: mouse CD4 backbone with human CD4 Domain 1 (human; mouse, UniProt P06332 129-457, limits assumed).
T1 construct: Transiently expressed on HEK-293 cells from the pcDNA3.4 vector; also called D1
Put plainly: flow cytometry on HEK293-6E cells expressing mouse CD4 with human CD4 domain 1, against isotype control. An excerpt:
(§1) CD4 is a member of immunoglobulin superfamily. It contains four extracellular immunoglobulin domains, Domain 1 to 4 from distal to proximal to cell membrane. The four CD4 extracellular domains and its intracellular domain were named D1-D5 and were expressed transiently with a mouse CD4 backbone in HEK-293 cells. The three antibodies were used to detect human CD4 D1-D5 expression by flow cytometry on these 293 cells.
Background: A flow cytometer gives signals particle by particle.

Another experiment concerns the target T2, HEK293-6E/domain5 (Mus musculus;Homo sapiens, UniProt P06332;P01730).
T2 construct: full-length backbone without its own intracellular domain;single domain inserted in the mouse backbone; transiently expressed on HEK-293 cells; the human part is intracellular, the extracellular part is mouse CD4; also called hybrid CD4 protein: mouse CD4 backbone with human CD4 intracellular domain; D5
Put plainly: flow cytometry on HEK293-6E cells expressing mouse CD4 with human CD4 domain 5 (intracellular), against isotype control.
From the text: as §1

A further experiment deals with human CD4 (human, UniProt P01730 26-458). Briefly: cell-based or functional assay.

T1 sequence (P06332 other isoform, or with tags, fused parts or gaps limits assumed): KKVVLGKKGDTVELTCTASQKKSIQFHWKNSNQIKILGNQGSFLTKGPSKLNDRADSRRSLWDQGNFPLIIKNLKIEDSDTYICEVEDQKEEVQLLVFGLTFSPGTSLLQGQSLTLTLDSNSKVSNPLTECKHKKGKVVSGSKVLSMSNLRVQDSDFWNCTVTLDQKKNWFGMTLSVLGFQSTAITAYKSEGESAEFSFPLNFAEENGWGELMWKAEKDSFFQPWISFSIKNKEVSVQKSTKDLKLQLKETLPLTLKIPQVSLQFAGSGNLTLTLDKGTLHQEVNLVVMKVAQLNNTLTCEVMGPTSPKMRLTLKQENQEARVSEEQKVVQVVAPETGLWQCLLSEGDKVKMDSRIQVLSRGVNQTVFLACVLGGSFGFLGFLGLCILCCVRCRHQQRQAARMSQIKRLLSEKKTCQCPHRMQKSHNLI
T2 sequence (P06332 other isoform, or with tags, fused parts or gaps limits assumed): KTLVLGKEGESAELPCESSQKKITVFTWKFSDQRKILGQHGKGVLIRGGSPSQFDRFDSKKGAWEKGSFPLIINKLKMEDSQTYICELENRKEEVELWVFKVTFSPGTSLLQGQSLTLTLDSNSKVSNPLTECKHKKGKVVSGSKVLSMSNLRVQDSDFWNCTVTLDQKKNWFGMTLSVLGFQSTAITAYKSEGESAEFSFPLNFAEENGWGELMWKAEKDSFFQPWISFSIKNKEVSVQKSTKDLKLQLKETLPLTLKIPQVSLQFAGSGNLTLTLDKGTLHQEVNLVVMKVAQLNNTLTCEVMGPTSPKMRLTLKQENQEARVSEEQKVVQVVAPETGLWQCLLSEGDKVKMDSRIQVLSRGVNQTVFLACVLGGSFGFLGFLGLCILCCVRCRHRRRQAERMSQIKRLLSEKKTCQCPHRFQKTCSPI

B1: Ibalizumab (antibody, V domains shown)
VH: QVQLQQSGPEVVKPGASVKMSCKASGYTFTSYVIHWVRQKPGQGLDWIGYINPYNDGTDYDEKFKGKATLTSDTSTSTAYMELSSLRSEDTAVYYCAREKDNYATGAWFAYWGQGTLVTVSS
VL: DIVMTQSPDSLAVSLGERVTMNCKSSQSLLYSTNQKNYLAWYQQKPGQSPKLLIYWASTRESGVPDRFSGSGSGTDFTLTISSVQAEDVAVYYCQQYYSYRTFGGGTKLEIKR
notes: also called Ibalizumab monoclonal antibody
In the case of B1, the binding result (in experiment [1]; with HEK293-6E/domain5) was “no binding” throughout.

B2: CAR No. 6 (anti-CD4 chimeric antigen receptor) (other)
chain: QIQLVQSGPELKKPGETVKISCKASGYTFTNYGMNWVKQAPGKGLKCMGWINTNTGEPTYAEEFKGRFAFSLETSATTAFLQINNLKDEDTATYFCARLGLYYDYGYYAMDYWGQGASVTVSSGGGGSGGGGSGGGGSNIVLTQSPASLAVSLGQRATISCRASESVDSYGNSFMHWYQQKPGQPPKLFIYLASNLESGVPARFSGSGSRTDFTLTIDPVEADDAATYYCQQNNEDPYTFGGGTKLEIKTTTPAPRPPTPAPTIASQPLSLRPEACRPAAGGAVHTRGLDFACDIYIWAPLAGTCGVLLLSLVITLYCKRGRKKLLYIFKQPFMRPVQTTQEEDGCSCRFPEEEEGGCELRVKFSRSADAPAYKQGQNQLYNELNLGRREEYDVLDKRRGRDPEMGGKPRRKNPQEGLYNELQKDKMAEAYSEIGMKGERRRGKGHDGLYQGLSTATKDTYDALHMQALPPR
B2: the “CD4+ cells in the effector population after 24 h co-culture (18.9% in UNT control)” value (shortened to “CD4+ cells … (18.9% in UNT control)”) with human CD4 was 13.1%.

B3: Tregalizumab (antibody, V domains shown)
VH: EEQLVESGGGLVKPGGSLRLSCAASGFSFSDCRMYWLRQAPGKGLEWIGVISVKSENYGANYAESVRGRFTISRDDSKNTVYLQMNSLKTEDTAVYYCSASYYRYDVGAWFAYWGQGTLVTVSS
VL: DIVMTQSPDSLAVSLGERATINCRASKSVSTSGYSYIYWYQQKPGQPPKLLIYLASILESGVPDRFSGSGSGTDFTLTISSLQAEDVAVYYCQHSRELPWTFGQGTKVEIKR
notes: also called Tregalizumab monoclonal antibody
For B3, the binding result (in experiment [1]; with HEK293-6E/domain5) was “no binding” throughout.

B4: CAR No. 4 (anti-CD4 chimeric antigen receptor, scFv derived from SK3) (other)
chain: QVQLQQSGPELVKPGASVKMSCKASGYTFTDYVINWVKQRTGQGLEWIGETYTGSGSSYYNEKFKDKATLTVDKASNIAYMQLSSLTSEDSAVYFCARRGKGTGFAFWGQGTLVTVSAGGGGSGGGGSGGGGSDIVLTQSPASLAVSLGQRATISCKASQSVDYDGDSYMNWYQQKPGQPPKLLIYAASNLESGIPARFTGSGSGTDFTLNIHPVEEEDTATYYCQQSYEDPPTFAGGTNLEIKTTTPAPRPPTPAPTIASQPLSLRPEACRPAAGGAVHTRGLDFACDIYIWAPLAGTCGVLLLSLVITLYCKRGRKKLLYIFKQPFMRPVQTTQEEDGCSCRFPEEEEGGCELRVKFSRSADAPAYKQGQNQLYNELNLGRREEYDVLDKRRGRDPEMGGKPRRKNPQEGLYNELQKDKMAEAYSEIGMKGERRRGKGHDGLYQGLSTATKDTYDALHMQALPPR
On to B4, for which the “CD4+ cells … (18.9% in UNT control)” value in the experiment with human CD4 was found to be 0%.

B5: CAR No. 3 (anti-CD4 chimeric antigen receptor, Tregalizumab VH/VL) (other)
chain: EEQLVESGGGLVKPGGSLRLSCAASGFSFSDCRMYWLRQAPGKGLEWIGVISVKSENYGANYAESVRGRFTISRDDSKNTVYLQMNSLKTEDTAVYYCSASYYRYDVGAWFAYWGQGTLVTVSSAGGGGSGGGGSGGGGSDIVMTQSPDSLAVSLGERATINCRASKSVSTSGYSYIYWYQQKPGQPPKLLIYLASILESGVPDRFSGSGSGTDFTLTISSLQAEDVAVYYCQHSRELPWTFGQGTKVEIKRTTTPAPRPPTPAPTIASQPLSLRPEACRPAAGGAVHTRGLDFACDIYIWAPLAGTCGVLLLSLVITLYCKRGRKKLLYIFKQPFMRPVQTTQEEDGCSCRFPEEEEGGCELRVKFSRSADAPAYKQGQNQLYNELNLGRREEYDVLDKRRGRDPEMGGKPRRKNPQEGLYNELQKDKMAEAYSEIGMKGERRRGKGHDGLYQGLSTATKDTYDALHMQALPPR
Consider B5, for which the “CD4+ cells … (18.9% in UNT control)” value with human CD4 worked out at 12.5%.

The values are drawn from US20220265711A1 (NANJING LEGEND BIOTECH, published 2022).
